pKd: −log10 of the molar value.
Experiments:
[1] = molecular target: T1, CD20 (B-lymphocyte antigen), expressed on HEK293T cells (human) (UniProt P11836); assay: flow cytometry (cell binding); conditions: no shift on untransfected HEK293T, DPBS with 4.5 g/L glucose, 5 mM MgCl2, 0.1 mg/mL yeast tRNA, 1 g/L BSA (10% FBS in flow assay), on ice 30 min, aptamer heated 95 C 5 min and snap-cooled, pH …
T1 sequence: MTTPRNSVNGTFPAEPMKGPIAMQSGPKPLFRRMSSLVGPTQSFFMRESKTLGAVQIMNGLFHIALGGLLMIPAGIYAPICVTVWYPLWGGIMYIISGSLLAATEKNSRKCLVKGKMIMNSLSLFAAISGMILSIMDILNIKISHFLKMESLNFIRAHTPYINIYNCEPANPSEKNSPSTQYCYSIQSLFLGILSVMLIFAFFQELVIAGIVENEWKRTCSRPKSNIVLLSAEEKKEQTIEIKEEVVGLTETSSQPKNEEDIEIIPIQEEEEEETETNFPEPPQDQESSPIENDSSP

[2] = molecular target: T2, CD20 on Pre-B ALL bone marrow cells (human) (UniProt P11836); assay: flow cytometry (cell binding); conditions: T-ALL (CD20-low) control 1.5%, DPBS with 4.5 g/L glucose, 5 mM MgCl2, 0.1 mg/mL yeast tRNA, 1 g/L BSA (10% FBS in flow assay), on ice 30 min, aptamer heated 95 C 5 min and snap-cooled, pH …
T2 sequence: T1 sequence

Sequence: ATACCAGCTTATTCAATTGGAATAAGGGGGTATTACTGTCTGGTAAACAAACGCTATGCGAGGGGATTCAAGATAGTAAGTGCAATCT [AP-1]
- pKd [1]: 7.01
- binding signal (% positive cells) [2]: 71.4

— publication PMC6017093
